Assay results from patent US20210388087A1.
Substitutions are numbered along the chain they refer to. In names and notes the source's numbering stands. Values belong to the binder of their own block, whether it stands above or below them.

Biological target: Human CD137 ECD (human)
Test: SPR, vs parent H183/L072

Sequence of Human CD137 ECD (human) (chain, as listed by the source limits assumed): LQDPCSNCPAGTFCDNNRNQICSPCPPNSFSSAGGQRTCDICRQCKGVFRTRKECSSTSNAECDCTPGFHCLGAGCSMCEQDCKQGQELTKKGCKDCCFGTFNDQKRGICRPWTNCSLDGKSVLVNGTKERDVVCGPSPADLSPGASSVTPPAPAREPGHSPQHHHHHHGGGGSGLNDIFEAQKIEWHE

B2: dBBDu183H D101W / dBBDu072L (antibody, name in Kabat numbering, V domains shown)
VH: QVQLVESGGGLVQPGRSLRLSCAASGFTFSNAWMHWVRQAPGKGLEWVAQIKDKGNAYAAYYAPSVKGRFTISRDDSKNSIYLQMNSLKTEDTAVYYCHYVHYASASTVLPAFGVWAWGQGTTVTVSS
VL: DIVMTQSPLSLPVTPGEPASISCQASQELVHMNRNTYLHWYQQKPGQAPRLLIYKVSNRFPGVPDRFSGSGSGTDFTLKISRVEAEDVGVYYCAQGTSVPFTFGQGTKLEIK
- fold change of affinity: 0 fold

B3: dBBDu183H A100fY / dBBDu072L (antibody, name in Kabat numbering, V domains shown)
VH: B2 VH with A112Y, W116D
VL: B2 VL
- fold change of affinity: 0 fold

B4: dBBDu183H A98Y / dBBDu072L (antibody, name in Kabat numbering, V domains shown)
VH: B2 VH with A104Y, W116D
VL: B2 VL
- fold change of affinity: 0 fold

B11: dBBDu183H A100fW / dBBDu072L (antibody, name in Kabat numbering, V domains shown)
VH: B2 VH with A112W, W116D
VL: B2 VL
- fold change of affinity: 0 fold

B13: dBBDu183H A102W / dBBDu072L (antibody, name in Kabat numbering, V domains shown)
VH: B2 VH with W116D, A117W
VL: B2 VL
- fold change of affinity: 0 fold

B14: dBBDu183H A100Y / dBBDu072L (antibody, name in Kabat numbering, V domains shown)
VH: B2 VH with A106Y, W116D
VL: B2 VL
- fold change of affinity: 0 fold

B18: dBBDu183H G100hW / dBBDu072L (antibody, name in Kabat numbering, V domains shown)
VH: B2 VH with G114W, W116D
VL: B2 VL
- fold change of affinity: 0 fold

Results, then the binder that gave them:

- fold change of affinity: 0 fold
B1: dBBDu183H S100aW / dBBDu072L (antibody, name in Kabat numbering, V domains shown)
VH: B2 VH with S107W, W116D
VL: B2 VL

- fold change of affinity: 0 fold
B5: dBBDu183H V100iW / dBBDu072L (antibody, name in Kabat numbering, V domains shown)
VH: B2 VH with V115W, W116D
VL: B2 VL

- fold change of affinity: 0 fold
B6: dBBDu183H V63Y / dBBDu072L (antibody, name in Kabat numbering, V domains shown)
VH: B2 VH with V66Y, W116D
VL: B2 VL

- fold change of affinity: 0 fold
B7: dBBDu183H L100dY / dBBDu072L (antibody, name in Kabat numbering, V domains shown)
VH: B2 VH with L110Y, W116D
VL: B2 VL

- fold change of affinity: 0 fold
B8: dBBDu183H S100aY / dBBDu072L (antibody, name in Kabat numbering, V domains shown)
VH: B2 VH with S107Y, W116D
VL: B2 VL

- fold change of affinity: 0 fold
B9: dBBDu183H H93Y / dBBDu072L (antibody, name in Kabat numbering, V domains shown)
VH: B2 VH with H99Y, W116D
VL: B2 VL

- fold change of affinity: 0 fold
B10: dBBDu183H V95Y / dBBDu072L (antibody, name in Kabat numbering, V domains shown)
VH: B2 VH with V101Y, W116D
VL: B2 VL

- fold change of affinity: 0 fold
B12: dBBDu183H P100eW / dBBDu072L (antibody, name in Kabat numbering, V domains shown)
VH: B2 VH with P111W, W116D
VL: B2 VL

- fold change of affinity: 0 fold
B15: dBBDu183H P100eY / dBBDu072L (antibody, name in Kabat numbering, V domains shown)
VH: B2 VH with P111Y, W116D
VL: B2 VL

- fold change of affinity: 0 fold
B16: dBBDu183H T100bW / dBBDu072L (antibody, name in Kabat numbering, V domains shown)
VH: B2 VH with T108W, W116D
VL: B2 VL

- fold change of affinity: 0 fold
B17: dBBDu183H T100bY / dBBDu072L (antibody, name in Kabat numbering, V domains shown)
VH: B2 VH with T108Y, W116D
VL: B2 VL
